From patent publication US8273705B2, “Conversion of apoptotic proteins” (The Burnham Institute, priority 2002, dated 2012)

B1: TR3/ΔDBD: TR3 mutant with the DNA binding domain removed; used as GFP fusion (protein)
chain: MPCIQAQYGTPAPSPGPRDHLASDPLTPEFIKPTMDLASPEAAPAAPTALPSFSTFMDGYTGEFDTFLYQLPGTVQPCSSASSSASSTSSSSATSPASASFKFEDFQVYGCYPGPLSGPVDEALSSSGSDYYGSPCSAPSPSTPSFQPPQLSPWDGSFGHFSPSQTYLVLHRLQCARGFGDWIDSILAFSRSLHSLLVDVPAFACLSALVLITDRHGLQEPRRVEELQNRIASCLKEHVAAVAGEPQPASCLSRLLGKLPELRTLCTQGLQRIFYLKLEDLVPPPPIIDKIFMDTLPF
modifications: left off: large carriers; small tags and cut ends
notes: used as GFP fusion
B2: TR3/ΔDBD/Δ471-488: TR3/ΔDBD with eighteen amino acids from 471 to 488 in the DC1 region deleted (protein)
chain: MPCIQAQYGTPAPSPGPRDHLASDPLTPEFIKPTMDLASPEAAPAAPTALPSFSTFMDGYTGEFDTFLYQLPGTVQPCSSASSSASSTSSSSATSPASASFKFEDFQVYGCYPGPLSGPVDEALSSSGSDYYGSPCSAPSPSTPSFQPPQLSPWDGSFGHFSPSQTYLVLFSRSLHSLLVDVPAFACLSALVLITDRHGLQEPRRVEELQNRIASCLKEHVAAVAGEPQPASCLSRLLGKLPELRTLCTQGLQRIFYLKLEDLVPPPPIIDKIFMDTLPF
modifications: left off: large carriers; small tags and cut ends
notes: TR3/ΔDBD with eighteen amino acids from 471 to 488 in the DC1 region deleted

What was measured:
Type in all cases: cell-based, human
293T cells [1] = test: Confocal microscopy of mitochondrial targeting in 293T cells
Experimental: (§1) Subcellular localization assays—Cells were seeded onto cover-slips in 6-well plates overnight, then transiently transfected with GFP-fusion expression plasmids. After 16 hours, cells were washed with PBS and fixed in 4% paraformaldehyde. For mitochondrial staining, cells were then incubated with anti-Hsp60 goat IgG (Santa Cruz, USA), followed by anti-goat IgG conjugated with Cy3 (Sigma). For cyt c staining, cells were incubated with monoclonal anti-cyt c IgG (PharMingen), followed by anti-mouse IgG conjugated with Cy5 (Amersham). Fluorescent images were collected and analyzed using a MRC-1024 MP laser-scanning confocal microscope (Bio-Rad). Subcellular fractionation assays were performed as described (Li, et al. 2000 Science 289:1159-1164). Briefly, cells (1×10^7 cells) suspended in 0.5 ml hypotonic buffer (5 mM Tris-HCl, pH 7.4, 5 mM KCl, 1.5 mM MgCl2, 0.1 mM EGTA, pH 8.0, and 1 mM DTT) were homogenized and cell extracts were centrifuged at 500×g for 5 min. The resulting supernatant was centrifuged at 10,000×g for 30 min at 4° C. to obtain the HM fraction. HM fraction was resuspended in 100 μl lysis buffer (10 mM Tris, pH 7.4, 150 mM NaCl, 1% Triton X-100, 5 mM EDTA, pH 8.0) for immunoblotting analysis.
A. confocal microscopy—First an experiment was performed to determine whether the deletion mutant TR3/ΔDBD targets mitochondria via its interaction with Bcl-2. In confocal microscopy analysis, GFP-TR3/ΔDBD and Bcl-2 were transfected into 293T cells alone or together. […] Bcl-2, TR3/ΔDBD and mitochondria (Hsp60) were visualized using confocal microscopy and the three images were overlaid.

293T cells [2] = test: DAPI apoptosis assay in 293T cells
Experimental: Apoptosis assays—For nuclear morphological change analysis, cells were trypsinized, washed with PBS, fixed with 3.7% paraformaldehyde, and stained with DAPI (4,6-diamidino-2-phenylindole) (50 μg/ml) to visualize the nuclei by UV-microscopy. The percentages of apoptotic cells were determined by counting 300 GFP-positive cells, scoring cells having nuclear fragmentation and/or chromatin condensation.
DAPI staining was used to study the apoptotic effect of TR3/Bcl-2 interaction. 293T cells were transfected with GFP-TR3/ΔDBD alone or together with Bcl-2. After 36 h, nuclei were stained by DAPI and nuclear fragmentation and chromatin condensation were identified. Cells were also stained with anti-Bcl-2 antibody, followed by TRITC-conjugated secondary antibody (Sigma). Bcl-2 and GFP-ΔDBD expression and nuclear morphology were visualized by fluorescence microscopy, and the two images were overlaid. […] But, when Bcl-2 was cotransfected, a significant amount of transfected cells underwent apoptosis. For example, approximately 4% of cells transfected with either TR3/ΔDBD or Bcl-2 were apoptotic, compared to 35% of cell transfected with both. […] Cotransfection of Bcl-2, however, prevented BAX-induced apoptosis in these cells (see FIG. 4). The effect of Bcl-2 on apoptotic potential of TR3/ΔDBD in lung cancer and breast cancer cells was also investigated.
To characterize the pro-apoptotic mechanism of Bcl-2 in the setting of TR3-induced apoptosis, various TR3 mutants and Bcl-2 mutants were co-expressed in HEK293T cells. TR3 mutants were transfected into 293T cells together with or without Bcl-2 expression vector or with Bcl-2 mutants. After 36 h, nuclei were stained by DAPI. Cells displaying nuclear condensation or fragmentation were scored.
The role of various Bcl-2 mutants in mediating apoptosis induction by TR3 was next studied. […] The hydrophobic cleft of Bcl-2 is involved in its anti-apoptotic effect through its interaction with BH3 domain of pro-apoptotic molecules (Reed 1997 Semin Hematol 34:9-19; Reed 1997 Nature 387:773-776). To investigate whether the BH3 domain-binding motif of Bcl-2 is also involved in its apoptotic effect, various Bcl-2 mutants including Y108K Bcl-2, with a mutation in the BH3 domain-binding cleft, L137A, and G145A (all with impaired interaction with bax), were cotransfected together with TR3/ΔDBD. […] Bcl-2 mutations (Y108K, L137A, G145A) that impaired its interaction with Bax, abolished the Bcl-2 inhibitory effect on Bax-induced apoptosis, consistent with previous observations that the hydrophobic cleft of Bcl-2 is essential for its anti-apoptotic effect. […] Thus, an intact BH3 domain-binding motif in Bcl-2 is involved in its pro-apoptotic effect. In contrast to the inhibitory effect of Bcl-2 on Bax-induced apoptosis TR3/ΔDBD-induced apoptosis was augmented by co-expression of Bcl-2 in HEK293T cells.
Mitochondrial targeting of TR3 has been previously identified as being involved in its apoptotic effect. To study whether mitochondrial localization of the TR3/ΔDBD/Bcl-2 complex was involved in their apoptotic effect, TR3/ΔDBD was cotransfected with Bcl-2/ATM, a Bcl-2 lacking its transmembrane domain. […] Thus, mitochondrial localization of TR3/ΔDBD/Bcl-2 complex is involved in this apoptotic effect.

HEK293T cells = test: Subcellular fractionation, heavy membrane (HM) fractions of HEK293T cells
Experimental: as §1, with “analysis. […]” for “analysis.”

[3] = 293T, co-expressed with Bcl-2, 36 h, DAPI

Molecule	subcellular distribution (293T cells [1]; coexpressed with Bcl-2)	subcellular distribution (293T cells [1]; expressed alone)	apoptosis (293T cells [2]; [3])	apoptosis (293T cells [2]; 293T, coexpression with Bcl-2/ΔTM)	apoptosis (293T cells [2]; 293T, cotransfected with Bcl-2 Y108K)	apoptotic cells (293T cells [2]; 293T, transfected alone, 36 h, DAPI)	apoptotic cells (293T cells [2]; 293T, transfected with both TR3/ΔDBD and Bcl-2, 36 h, DAPI) [%]	apoptosis (293T cells [2]; HEK293T, co-expression with Bcl-2/ΔLoop)	apoptosis (293T cells [2]; co-expressed with Bcl-2 L137A and G145A)	apoptosis (293T cells [2]; co-expressed with Bcl-2 mutants lacking TM, BH1, BH2 or BH3 domain)	accumulation in HM fraction (HEK293T cells; presence of Bcl-2)	colocalization with mitochondria (293T cells [1])	accumulation in HM fraction (HEK293T cells; either in the absence or presence of Bcl-2)
B1	distribution pattern overlaid extensively with that of Hsp60	diffuse distribution pattern	augmented	did not result in apoptosis	unable to induce apoptosis	approximately 4%	35	did not induce cell death	retained the ability to promote apoptosis	incapable of inducing apoptosis	accumulated in the HM fraction		
B2			failed to confer the apoptotic potential of Bcl-2									failed to colocalize with mitochondria	not found in the HM fraction
